Tests used:
[1] = target: DcaP lacking 40 residues at the N-terminus of the mature protein (DcaP_(DN40)) (Acinetobacter baumannii (strain AB307-0294)); assay: SEC
[2] = target: barrel-only DcaP lacking the first 59 residues (DcaP_(Trunc)) (Acinetobacter baumannii (strain AB307-0294)); assay: SEC
[3] = target: full-length DcaP from Acinetobacter baumannii AB307-0294 (DcaPfl) (Acinetobacter baumannii (strain AB307-0294)); assay: single channel electrophysiology in planar lipid bilayers
[4] = target: full-length DcaP from Acinetobacter baumannii AB307-0294 (DcaPfl) (Acinetobacter baumannii (strain AB307-0294)); assay: SEC
[5] = target: seleno-methionine substituted DcaP_(DN40) with L280M and L282M (Acinetobacter baumannii (strain AB307-0294)); assay: crystal structure

DcaP lacking 40 residues at the N-terminus of the mature protein (DcaP_(DN40)) (domain or fragment)
stoichiometry N [1]: 3

barrel-only DcaP lacking the first 59 residues (DcaP_(Trunc)) (domain or fragment)
stoichiometry N [2]: 3

full-length DcaP from Acinetobacter baumannii AB307-0294 (DcaPfl) (natural protein)
stoichiometry N [3]: 3
stoichiometry N [4]: 3

seleno-methionine substituted DcaP_(DN40) with L280M and L282M (domain or fragment)
stoichiometry N [5]: 3
